Results from the supplement of paper PMC7125110.
± gives the standard error. For part of these data: Variants at the floor of the assay were thinned out.

B1: glmS ribozyme (parent)
chain: AUAAAAGCGCCAGAACUACAGAAAUGUAGUUGACGAGGAGGAGGUUUAUCGAAUUUUCGGCGGAUGCCUCCAAA

Tests used:
Conditions in all cases: with glucosamine-6-phosphate
glucosamine-6-phosphate [1] = variants of: B1; experiment: kcat; higher = faster cleavage; RNA array
Method in brief: (§1)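 Tiles bearing barcoded ribozyme variants, transcribed in situ by E. coli RNA polymerase on sequenced MiSeq chips, were imaged over ~14 h at 37 °C using a hybridised Cy3 probe. Glucosamine-6-phosphate was supplied at 40 μM to 10 mM in HEPES/KCl/Mg(OAc)2 buffer. kobs came from one- or two-exponential decay fits to normalised per-tile medians, and weighted Michaelis–Menten fits then provided kcat and KM.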

glucosamine-6-phosphate [2] = variants of: B1; experiment: self-cleavage kobs at 40 uM GlcN6P; higher = faster cleavage; RNA array
Method in brief: as §1

glucosamine-6-phosphate [3] = variants of: B1; experiment: self-cleavage kobs at 160 uM GlcN6P; higher = faster cleavage; RNA array
Method in brief: as §1

glucosamine-6-phosphate [4] = variants of: B1; experiment: self-cleavage kobs at 640 uM GlcN6P; higher = faster cleavage; RNA array
Method in brief: as §1

glucosamine-6-phosphate [5] = variants of: B1; experiment: self-cleavage kobs at 2500 uM GlcN6P; higher = faster cleavage; RNA array
Method in brief: as §1

glucosamine-6-phosphate [6] = variants of: B1; experiment: self-cleavage kobs at 10000 uM GlcN6P; higher = faster cleavage; RNA array
Method in brief: as §1

glucosamine-6-phosphate [7] = variants of: B1; experiment: KM; higher = weaker cofactor use; RNA array
Method in brief: as §1

Row | Variant | kcat (glucosamine-6-phosphate [1]) | self-cleavage kobs at 40 uM GlcN6P (glucosamine-6-phosphate [2]) | self-cleavage kobs at 160 uM GlcN6P (glucosamine-6-phosphate [3]) | self-cleavage kobs at 640 uM GlcN6P (glucosamine-6-phosphate [4]) | self-cleavage kobs at 2500 uM GlcN6P (glucosamine-6-phosphate [5]) | self-cleavage kobs at 10000 uM GlcN6P (glucosamine-6-phosphate [6]) | KM (glucosamine-6-phosphate [7])
1 | AUAAAAGCGCCCGAAUUACAGAAAUGUAGUUGACGAGGAGGAGGUUUAUCGAAUUUUCGGCGGAUGCCUCCAAA [A12C C16U] | 0.0121 ± 0.005 s⁻¹ | 0.000543 ± 4.7e-05 s⁻¹ | 0.001 ± 0.00018 s⁻¹ | 0.00435 ± 0.00065 s⁻¹ | 0.0065 ± 0.0011 s⁻¹ | 0.016 ± 0.0022 s⁻¹ | –
2 | AUAAAAGCGCCCGAACUACAGACAUGUAGUUGACGAGGAGGAGGUUUAUCGAAGUUUCGGCGGAUGCCUACAAA [A12C A23C U54G C70A] | 0.00013 ± 1.8e-05 s⁻¹ | 8.19e-05 ± 2.8e-05 s⁻¹ | – | 0.000146 ± 2.1e-05 s⁻¹ | 0.000103 ± 1.9e-05 s⁻¹ | 0.000154 ± 2.8e-05 s⁻¹ | –
3 | AUAAAAGCGCCCGAACUACAGAAAUGUAGUUGAAGAGGAGGAGGUUUAUCGAAUUUUCGGCGGAUGCCUCCAAA [A12C C34A] | < 1e-05 s⁻¹ | < 1e-05 s⁻¹ | < 1e-05 s⁻¹ | < 1e-05 s⁻¹ | < 1e-05 s⁻¹ | – | –
4 | AUAAAAGCGCCCGAACUACAGAAAUGUAGUUGACGAGGAGGAGGUUUAUAGAAUUAUCGGCGGAUGCCUCCAAA [A12C C50A U56A] | < 1e-05 s⁻¹ | – | – | < 1e-05 s⁻¹ | – | – | –
5 | AUAAAAGCGCCCGAACUACAGAAAUGUAGUUGACGAGGUGGAGGUUUAUCGAAUUUUCGGCGGAUGCCUCCAAA [A12C A39U] | 0.0119 ± 0.0024 s⁻¹ | 0.000239 ± 1.9e-05 s⁻¹ | 0.000824 ± 9.8e-05 s⁻¹ | 0.00219 ± 0.00025 s⁻¹ | 0.00569 ± 0.00066 s⁻¹ | 0.0112 ± 0.0011 s⁻¹ | 2230 ± 600 µM
6 | AUAAAAGCGCUAGAACUACAGAAAUGUAGUUGACGAGGAGGAGGUUUAUCGAAUUUUCGGCGGAGGCCUCCAAA [C11U U65G] | 0.000263 ± 6.3e-05 s⁻¹ | < 1e-05 s⁻¹ | – | 6.28e-05 ± 3.1e-05 s⁻¹ | – | 0.000227 ± 9.2e-05 s⁻¹ | 2580 ± 1200 µM
7 | AUAAAAGCGCCCGAACUACAGAAAUGUAGUUGACGAGGAGGAGGUUUAUCGAAUUUUCGGCGGGUGCCUCCAAA [A12C A64G] | 0.000378 ± 6.7e-05 s⁻¹ | – | – | 0.000111 ± 1.5e-05 s⁻¹ | 0.000209 ± 3.2e-05 s⁻¹ | 0.000415 ± 0.0001 s⁻¹ | 1600 ± 500 µM
8 | AUAAAAGCGCUAGAACUACAGAAAUGUAGUUGACGAGGAGGAGGUUUAUCGAAUUUUCGGCGGAGGCUUCCAAA [C11U U65G C68U] | 6.35e-05 ± 2.3e-05 s⁻¹ | – | – | – | 0.000106 ± 3.6e-05 s⁻¹ | 5.53e-05 ± 1.2e-05 s⁻¹ | –
9 | AUAAAAGCGCUAGAACUACAGAAAUGUAGUUGACGAGGAGGAGGUUUAUCGAAUUUUCGGCGGAAGCCUCUAAA [C11U U65A C71U] | 0.000194 ± 1.4e-05 s⁻¹ | – | – | 2.73e-05 ± 1.3e-05 s⁻¹ | 8.15e-05 ± 1.6e-05 s⁻¹ | 0.000139 ± 4.3e-05 s⁻¹ | 3610 ± 470 µM
10 | AUAAAAGCGCCCGAUUUACAGAAAUGUAGUUGACGAGGAGGAGGUUUAUCGAAUUUUCGGCGGAUGCCUUCAAA [A12C A15U C16U C70U] | 0.000185 ± 1.8e-05 s⁻¹ | – | 5.1e-05 ± 1.8e-05 s⁻¹ | 9.57e-05 ± 2.2e-05 s⁻¹ | 0.000148 ± 5e-05 s⁻¹ | 0.000188 ± 4.7e-05 s⁻¹ | 514 ± 130 µM
11 | AUAAAAGCGCCCGAACUACAGAAAUGUAGUUGACGAGGAGGAGGUUUAUCGACUUUUCGGCGGAUGCCUCCAAA [A12C A53C] | 0.00399 ± 0.0011 s⁻¹ | 0.000109 ± 1.4e-05 s⁻¹ | 0.000285 ± 8.1e-05 s⁻¹ | 0.000662 ± 0.00012 s⁻¹ | 0.00223 ± 0.00038 s⁻¹ | 0.00352 ± 0.00041 s⁻¹ | 2090 ± 920 µM
12 | AUAAAAGCGCCCGAACUACAGAAAUGUAGUUGACGAGGAGGAGGUUUAUCGAGUUUUCGGCGGAUGCCUCCAAA [A12C A53G] | 0.0568 ± 0.027 s⁻¹ | 0.000585 ± 7.2e-05 s⁻¹ | 0.00162 ± 0.00033 s⁻¹ | 0.00569 ± 0.00072 s⁻¹ | 0.0149 ± 0.0025 s⁻¹ | 0.0471 ± 0.0076 s⁻¹ | –
13 | AUAAAAGCGCCCGAACUACAGAAAUGUAGUUGACGAGGAGGAGGUUUAUCGAUUUUUCGGCGGAUGCCUCCAAA [A12C A53U] | 0.015 ± 0.0038 s⁻¹ | 0.000376 ± 4.9e-05 s⁻¹ | 0.000867 ± 0.00013 s⁻¹ | 0.00317 ± 0.00041 s⁻¹ | 0.0103 ± 0.0019 s⁻¹ | 0.0121 ± 0.0016 s⁻¹ | 2160 ± 740 µM
14 | AUAAAAGCGCCCGCACUACAGAAAUGUAGUUGACGAGGAGGAGGUUUAUCGAAUUUUCGGCGGAUGCCUCCAAA [A12C A14C] | 0.00082 ± 0.00025 s⁻¹ | – | 4e-05 ± 1.8e-05 s⁻¹ | 7.98e-05 ± 2e-05 s⁻¹ | 0.000201 ± 5.1e-05 s⁻¹ | 0.000534 ± 0.0001 s⁻¹ | 6190 ± 2800 µM
